From paper PMC7326820, “Characterization of Purple Acid Phosphatase Family and Functional Analysis of GmPAP7a/7b Involved in Extracellular ATP Utilization in Soybean” (Frontiers in Plant Science, 2020)

B1: GmPAP7a (Glycine max) (protein)
chain: MASSLNQRMLFPLMFVIGMFCLMVTPSIAELPIFKHPPKKQQSLNILVLGDWGRKGTYNQSLVANQMGIVGEKLDIDFVISTGDNFYEDGLKGVDDPAFYQSFVDMYTAPSLQKTWYTVLGNHDYRGDVGAQLSPILKQKDSRWLCMRSFILDGEIVEFFFVDTTPFVEEYFTDPGEHTYDWEGVLPRLAYLSELLKDVDLALAQSKAKWKMVVGHHTINSAGHHGNTEELKQLLVPILEANDVDAYINGHDHCLQHIIDNNSGIHFITSGGGSKAWSGDVKPWKLEELKLYYDGQGFMSMQITKSKADIIFYDAFGKVLHTWSISKDRNVAAWI
B2: GmPAP7b (Glycine max) (protein)
chain: MASSLNQRMVFPVMVVVGMFCLLVTPSIAELPRFKHPPKKQQSLNILVLGDWGRKGTYNQSLVANQMGIVGEKLDIDFVISTGDNFYEDGLKGVDDPAFYQSFIHMYTAPSLQKTWYTVLGNHDYRGDVEAQLSPILKQKDSRWLCMRSFILDGEIVEFFFVDTTPFVEEYFTDPGEHTYDWEGVLPRLAYVSKLLKDVDSALAQSKAKWKMVVGHHTINSAGHHGSTEDLKQLLVPILEANNVDAYINGHDHCLQHIIDNNNGIHFITSGGGSKAWSGDVKPWKLEELKLYYDGQGFMSMQITKSTAYIIFYDAFGKVLHTWSISKDRNVAAWI

Substrate: Nc1ncnc2c1ncn2[C@@H]1O[C@H](COP(=O)(O)OP(=O)(O)OP(=O)(O)O)[C@@H](O)[C@H]1O
Test: Pi release, Lineweaver-Burk plot
Assay type: biochemical, Glycine max
Details: pH and temperature not stated for kinetics (substrate tests in 45 mM Na-acetate pH 5.0)

Row | Protein | Km [µM]
1 | B1 | 110
2 | B2 | 66
